These results are taken from publication PMC4240464.

The labels stand for the following.
B1: CCL23 (ligand)
chain: RVTKDAETEFMMSKLPLENPVLLDRFHATSADCCISYTPRSIPCSLLESYFETNSECSKPGVIFLTKKGRRFCANPSDKQVQVCMRMLKLDTRIKTRKN
B2: CCL24 (ligand)
chain: VVIPSPCCMFFVSKRIPENRVVSYQLSSRSTCLKAGVIFTTKKGQQFCGDPKQEWVQRYMKNLDAKQKKASPRARAVAVKGPVQRYPGNQTTC
B3: CCL18 (ligand)
chain: AQVGTNKELCCLVYTSWQIPQKFIVDYSETSPQCPKPGVILLTKRGRQICADPNKKWVQKYISDLKLNA
B4: CCL1 (ligand)
chain: KSMQVPFSRCCFSFAEQEIPLRAILCYRNTSSICSNEGLIFKLKRGKEACALDTVGWVQRHRKMLRHCPSKRK
B5: CCL15 (ligand)
chain: QFTNDAETELMMSKLPLENPVVLNSFHFAADCCTSYISQSIPCSLMKSYFETSSECSKPGVIFLTKKGRQVCAKPSGPGVQDCMKKLKPYSI

The first experiment deals with Evasin-4–Fc (Rhipicephalus sanguineus). The experiment in a line: SPR. For orientation: SPR reads the build-up and loss of mass on a sensor chip optically.
Consider B1, for which the equilibrium dissociation constant (Kd) (usually a measure of binding affinity in units of concentration) was determined as 0.232 nM. This lies in the sub-nanomolar range.

B2 came in with a dissociation constant Kd of 708 nM.

The molecule B3 returned a Kd of 3.63 nM.

Molecule B4 registered a Kd of 0.097 nM.

As to B5, the dissociation constant Kd was determined as 0.016 nM.

A further experiment has as its target Fc–Evasin-4 (Rhipicephalus sanguineus). The experiment in a line: SPR.
On to B1, for which the Kd was determined as 0.124 nM.

In turn, B2 registered a Kd of 4.84 nM.

Consider B3, for which the Kd was determined as 0.083 nM.

B4 showed an equilibrium dissociation constant (Kd) of 0.276 nM.

In the case of B5, the Kd worked out at 0.04 nM.
